Reference: the nanobody polyreactivity screen of Harvey et al. (2022)

Assay: yeast display, Sf9 membrane polyspecificity reagent, FACS + sequencing; frameworks hold sequencing errors
Procedure, shortened: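 Genes from sorted yeast were amplified by colony PCR, read by MiSeq 2 × 250 sequencing and filtered on CDR length. These cells carried a synthetic nanobody library in Saccharomyces cerevisiae BJ5465 and were sorted by FACS into low and high (top ~1%) gates on anti-HA and streptavidin fluorescence. Polyreactivity is labelled according to the gate of origin.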

Sequence	polyreactivity (PSR sort gate)
QVQLVESGGGLVQAGGSLRLSCAASGSTFGYNAMGWYRQAPGKERELVAAISFSSGRTYYADSVKGRFTISRDNAKNTVYLQMNSLKPEDTAVYYCAALQYRRRPYGAVERYDYWGQGTQVTVSS	high polyreactivity
QVQLVESGGGLVQAGGSLRLSCAASGRILRQYAMGWYRQAPGKESELVAAISRSGASTFYADSVKGRFTISRDNAKNTVYLQMNSLKPEDTAVYYCAAEHHAFTWAAINYGSWGQGTQVTVSS	high polyreactivity
QVQLVESGGGLVQAGGSLRLSCAASGFTFQGNAKGCYIQAPGKERELVGAISYDGGSTYYADSVKGRFTISRDNAKNTVYLQMNSLKPEDTAVYYCAAYVGTWYYYWGQGTQVTVSS	high polyreactivity
QVQLVESGGGLVQAGGSLRLSCDASGRTFGVYAMGWYRQAPGKERELVAAISTRGGSTYYADSVKGRFTISRDNAKNTVYLQMNSLKPEDTAVYYCAAEQYVWGYWFNYGYWGQGTQVTVSS	high polyreactivity
QVQLVESGGGLVQAGGSLRLSCAASRITFSLYAMGWYRQAPGKERELGAAISRGGSTKYADSVKGRFTISRDNAKNTVYLQMNSLKPEDTAVYYCNASARTYGGQTWNYYWGQGTQVTVSS	high polyreactivity
QVQLVESGGGLVQAGGSLRLSCAASGITFTVYAMGWYRQAPGKERELVAAITSTGSTNYAHSVKGRFTISRDNAKNTVYLLMNSLKPEDTAVYYCAADRQITVYAYDYWGQGTQVTVSS	low polyreactivity
QVQLVESGGGLVQAGGSLRLSSAASGSIFQYYTMGWYRQAPGKERELVASISSDGSTYYADSVKGRFTISRDNAKNTVYLQMNSLKPEDTAVYYCADVLWEPPVHPGYDYWGQGTQVTVSS	low polyreactivity
QVQLVESGGGLVQAGGSLRFSCAASGFNFDQNAMGWYRQAPGQERELVAAITRRGGRTYYADSVKGRFTISRDNAKYTVYLQMNSLKPEDTAVYYCAALLPVHHRGYYWGQGTQVTVSS	high polyreactivity
QVQLVESGGGLVQAGGSLRLSCAASGSTFYQSVMGWYRQAPGKERELVADITNGGSTYYADSVKGRFTISRDNAKNTVYLQMNSLKPEDTAVYYCAADGGYYWYTYWYGGLYYWGQGTQVTVSS	high polyreactivity
QVQLVESGGGLVQAGGSLRLSCAASGSIFGAYAMGRYRQAPGKERELVAAITSGGSTNYADSVKGRFTISRDNAKNTVYLQMNSLKPEDTADYYCAARRRYAKFRYDYWGQGTQVTVSS	high polyreactivity
QVQLLESGGVLVQAGGSLRLSCAASGFTFWYYAMGWYRQAPGKQRELVATITWNVGSTYYADSVKGRFTISRDNAKNTVYIQMNTLKPEDTAVYYCNKSYSRSSYWQYYYWGQGTQVTVSS	low polyreactivity
QVQLVESGGGYVQAGGSLRLSCAASGSTFRYYAMGWYRQAPGKEREFVASITQSGGSTYYADSVMGRFTISRDNAKNTVYLQMISLKPEDTAVYYCAADVYSWVYLMDYWGQGTQVTVSS	low polyreactivity
QVQLVESGGGLVQAGGSLRLSCAASGSISAVNTMGWYRQAPGKERELVATISYSTASTYYADSVKGRFTISRDNAKITVYLQMNCLKPEDTAVYFCAADAYFDTWYDYWGQGTQVTVSS	low polyreactivity
QVQLVESGGVLVQAGGSLRLSCAASGRTIWYYAMGWYRQAPGKERELVASITRSGGTTYADSVKGRFTISRDNAKNTVYLQMNSLKPEDTAVYYCAATRPRIPVYQNNYGYWGQGTQLTVSS	high polyreactivity
QVQHVESGGGLVQAGGSLRLSCAASGSILDGNTMGWYRQSPGKARELVAALTWDCTSTYYADSVKGRFTISRDNAKNSVYLQMNSLKPEDTAVYYCAATKGYSDPSTLYYAYIHYDYWGQGTQVTVSW	low polyreactivity
QVQLVESGGGLVQAGGSLRLSCAASGIIIDSNAMGWYRQAPGKERELVAAITSGGSTKYADSVKGRFTISRDNAKNTVYLQMNSLKPEDTAVYYCNADFRQADQCSYFYEMDSWGQGTQVTVSS	low polyreactivity

Sequence	polyreactivity (PSR sort gate)
QVQLVESGGGLVQAGGSLRLRCAASGSIFYFYAMGWYRQAPGQEREFVAAITRSGGRTYYADSVKGRFTISRDNAKNTVYLQMNSLKPEDTAVYYCDAVPYDKRKGDYWGQGTQVTVSS	high polyreactivity
QVQLQESGSGLVQAGGSLRLSCAASGYISLGDNMGWYRQAPGKEREFVATISVGGITYYVDSVKGRFTISRDIAKNTVYLQMNSLKPEDTAVYYCADLDIYYFRYYYWGQGTQVTVSS	low polyreactivity
QLQLVESGRGLVQAGGSLRLSCAASGSTFQLYTMGLYRQAPGKERELVAAITGSGGSTYYADSVKGRFTISRDNAKNTVYLQMNSLKPEDTAVYYCAAKSSFRIAWEYYYWGQGTQGTVSS	high polyreactivity
QVQLLESGGGLVQAGGSLRLSCAASGSTFRWYAMGWYRQAPGRERELVAAITWSGGRTYYADSVKGRFTISRDNAKNTVYLQMNSLKPEYTAVYYCNAVYYHVVDFDYWGQGTQVTVSS	high polyreactivity
QVQLVESGGGLVQAGGSLRLSCAASGRIFFDYDMGWYRPAPGKERELVAAISSSGDSTYYADSVKGRFTISRDNAKNTVYLQMNSLKPEDTAVYYCNAKSVPVNYVAIKYDYWGQGTQVTVSS	high polyreactivity
QVQLVESGGGLVQAGGSLRLSCAASGFIFTYYAMGWYRPEHGKERDLVATINWSDGSTRYADSVKGRFTISRDNAKNTDYLQMNSLKPEDTAVYYCAKDWFNRPSVEMDYWGQGTQVTVSS	low polyreactivity
QVQLVESGGGLVQAGCSLRLSCAASGSILWHYAMGWYRPAPGKERELVAAISGSGRTNYADSVKGGFTISRDNAKNTVYLQLNSLKPEDTAVYYGARVHGTSESKYYYWGQGTQVTVSL	low polyreactivity
QVQLVESGGGLVQAGGSLRLSCAASGIIFRVYTMGWYRQAPGKERELVAGLSSGDSTSYADSVKGRFTISRDNAKNTVYLQMNSLKPEDTAVYYCNAVAYYSYSANFRNAYDYWGQGTQVTVSS	low polyreactivity
QVKLVESGGGLVQAGGRLRLSCAASGSIFTYYAMGWYRQAPGKERELVAAISYGGGSTYYADSVKGRFTISRDNAKYTVYLQMNSLKPEDTAVYDCNGVLGVNYGYWGQGTQVTVSS	high polyreactivity
QFQLVESGGGLVQAGGSLRLSCAASGGTFYVNDMGWYRQAPGKERELVATITYSGTSTYYADSVKGRFTISRDNAKNTVYLQMNSLKPEDTAVYYCATDVLLYFEPVNLDYWGQGTQVTVSS	low polyreactivity
QVQLVESGGGLVQAGGSLRLSCAASGNIFYYYAMGWYRQAPGKERELVAAISWRGGITYYANSVKGRFTISRDNAKNTVYLQMNSLKPEDNAVYYCNAVQPGYPNGFAVRYNYWGQGTQVTVSS	low polyreactivity
QVQLVESGGGLVQAGGSLRLSCAASGRTFGYNAMGWYRQAPGKERELVATISSSTVSTSYADSVKGRFTISRDNAKNTVYLQMNSLKPEDPAVYYCNARSRVSPTERVPYDSWGQGTQVTVSS	low polyreactivity
QVQLVESGGGLVQAGGSLRLSCAASGRTFNYYNMGWYRQAPGKERELVAAISRGGTTYYADSVKGRFTISRDNAKKTVYLQMNSLKPEDTAVYYCAVAYAPRVQTVWSYVSGSTYYSWGQGTQVTVSS	high polyreactivity
QVQLVESGGGLVQAGGSLRLSCAASGRIFKVYAMGWYRQAPGKERELVAVINGGGSTNYADSVKGRFTISRDNAKNTVYLQMNSLKPEDTAVYYCATEGYGHGGETDGGVYSDLGYWGQGTQVTVSS	low polyreactivity
QVQLVESGGGLVQAGGSLRLSCAASGSIFKQYVMGWYRQAPGKERELVAAISRGGNTYYADSVKGRFTISRDNAKNTVYLQMNSLKPEDTAVYYCAAVYGGRAVPYYSWGQGTQVTVSS	high polyreactivity
